Assay: soluble on expression in E. coli; label from the status in PepcDB or PDB records

Row | Sequence | soluble on expression in E. coli
1 | METRAAENTAIFMCKCCNLFSPNQSELLSHVSEKHMEEGVNVDEIIIPLRPLSTPEPPNSSKTRDEFLVMKRKRGRPKGSTKKSSTEEELAENIVSPTEDSPLAPEEGNSLPPSSLECSKCCRKFSNTRQLRKHICIIVLNLGEEEGEAGNESDLELEKKCKEDDREKASKRPRSQKTEKVQKISGKEARQLSGAKKPIISVVLTAHEAIPGATKIVPVEAGPPETGATNSETTSADLVPRRGYQEYAIQQTPYEQPMKSSRLGPTQLKIFTCEYCNKVFKFKHSLQAHLRIHTNEKPYKCPQCSYASAIKANLNVHLRKHTGEKFACDYCSFTCLSKGHLKVHIERVHKKIKQHCRFCKKKYSDVKNLIKHIRDAHDPQDKKVKEALDELCLMTREGKRQLLYDCHICERKFKNELDRDRHMLVHGDKWPFACELCGHGATKYQALELHVRKHPFVYVCAVCRKKFVSSIRLRTHIKEVHGAAQEALVFTSSINQSFCLLEPGGDIQQEALGDQLQLVEEEFALQGVNALKEEACPGDTQLEEGRKEPEAPGEMPAPAVHLASPQAESTALPPCELETTVVSSSDLHSQEVVSDDFLLKNDTSSAEAHAAPEKPPDMQHRSSVQTQGEVITLLLSKAQSAGSDQESHGAQSPLGEGQNMAVLSAGDPDPSRCLRSNPAEASDLLPPVAGGGDTITHQPDSCKAAPEHRSGITAFMKVLNSLQKKQMNTSLCERIRKVYGDLECEYCGKLFWYQVHFDMHVRTHTREHLYYCSQCHYSSITKNCLKRHVIQKHSNILLKCPTDGCDYSTPDKYKLQAHLKVHTALDKRSYSCPVCEKSFSEDRLIKSHIKTNHPEVSMSTISEVLGRRVQLKGLIGKRAMKCPYCDFYFMKNGSDLQRHIWAHEGVKPFKCSLCEYATRSKSNLKAHMNRHSTEKTHLCDMCGKKFKSKGTLKSHKLLHTADGKQFKCTVCDYTAAQKPQLLRHMEQHVSFKPFRCAHCHYSCNISGSLKRHYNRKHPNEEYANVGTGELAAEVLIQQGGLKCPVCSFVYGTKWEFNRHLKNKHGLKVVEIDGDPKWETATEAPEEPSTQYLHITEAEEDVQGTQAAVAALQDLRYTSESGDRLDPTAVNILQQIIELGAETHDATALASVVAMAPGTVTVVKQVTEEEPSSNHTVMIQETVQQASVELAEQHHLVVSSDDVEGIETVTVYTQGGEASEFIVYVQEAMQPVEEQAVEQPAQEL | soluble
2 | METSETDSTGNTQTCETRQTRSNSWTAWGIHAISTITDGAKQLYTKALGLDELEEKKLEDEEGVTHVEVDEKTKRDLWNQLSTLVGADVINMRLSLPVWLFEPTTALQRMCETLQFHQLLDMAATCEEPVERDALVAAFTVSAFAHTERVYKPFNPVLGETFEWTSRDGTTRVLCEQVSHHPPVSVSYTEGPGWVAQEVFSCNAYFLGNSVEIRNTGSRYVYLTSFDERYEWTLPVSAAQNLFVGGSFIDHYGELILRSSPRGSVTSLTFTKCGWFGRGRYAVNGDIVDADGYRVMELSGEWNRGLVGFRLDKSSGERVDAKSLWYAGEHKPAVKRDKYNFTNFTYELLEVPDNAESIIPPTDSRFRPDRRALEGNNLSLANLEKVRVENIQRERENQRQKTGTTYVPAWFYQDDNNEWHFGGKYWKETRNMSEDQKEQMKLW | soluble
3 | METTQTLRFKTKALAVLSKCYDHAQTHLKGGVLQVNLLSVNYGGPRLAAVANAGTAGLISFEVSPDAVAEWQNHQSPEEAPAAVSFRNLAYGRTCVLGKELFGSAVEQASLQFYKRPQGGSRPEFVKLTMEYDDKVSKSHHTCALMPYMPPASDRLRNEQMIGQVLLMPKTASSLQKWARQQGSGGVKVTLNPDLYVTTYTSGEACLTLDYKPLSVGPYEAFTGPVAKAQDVGAVEAHVVCSVAADSLAAALSLCRIPAVSVPILRFYRSGIIAVVAGLLTSAGDLPLDLSVILFNHASEEAAASTASEPEDKSPRVQPLGTGLQQRPRHTVSPSPSPPPPPRTPTWESPARPETPSPAIPSHSSNTALERPLAVQLARKRTSSEARQKQKHPKKVKQAFNPLI | soluble
4 | MEVEVEKDCRTECSREREIEKERSKDEFHGLIEIDGECMQSGNRKWKRIDSAVKVAKKEKKKKMKDEEKKKEDEDNLQHTIQQSE | soluble
5 | MEVGMIPRVYLGHEWFGAERILSEYQVPEDCGAQVLFLGIPRNAPEDGGNIEALEYEAYPEMAIKEMEKIRQETIEKFGVKEVFIHHRLGLVKIGEPSFLVLAVGGHREETFKACRYAVDETKKRVPIWKKEIFKEGKGEWVLGEKKNASGQTK | soluble
6 | MEVKLWNDKREREMYENFAELFAIIKATEKLEKAYIRDLINPSEYESECQKLIVHFKTLSATLKDTVPNIERFADTYKMDCPAALYRLVTSGLPATVEHRATVAASTSNSASIVAECVQNFITSMDSLKLNMVAVDQVYPLLSDLSASLNKLSILPPDFEGKTKMKEWLSRLSKMGAADELTEQQSRQLHFDLESSYNSFMAALPKAGN | soluble
7 | MEVSTVNDVKIYNLSAGKSLPEWMSSRTRRKLEQRNTDVRQRIQLIQDFEMPDVSNTVNITPDGKYVWASGNYKPWLRCYDLNNLSLKFERGLDADVIKLIPLSDDYSKVVILEEERWIEMHAMLGRYFRMRMPCQGRDMALSEESSDLYLVGSKSEVYRFNLEQGCWLTPFESTAPLNCVQVCTEHQLICCGTTNGVVEAWDHRDKSLCGTLDAGSSVNSHIGENQKVAVTSVAFSDPLHIGVGTSTGQILIYDLRARRPLLIKDHNNELPINKLDFIKRDDGDVVASMDSRMMKLWHEEDGSPMAAIENTCPLNDFCRFPNSGMFFFANEAPKMLQYFIPQLGPAPKWCSYLENLTEEMEETETTVYDNYRFVTKKQLDDLGLSGLIGTNVLRAYMHGYFIDARLYNKAQTQMQPFAYEKYKDEKIKSMIADEREESAVKKKVEKLPAVNKALAARLRDEASAANQKAETKKEKKKSKKSDAATSLLADDRFKKLFESEDFEVDETSEQFLKNASIAQKMKAKGPVEVESEGEESEDNDASDSENEASGSDSEPKGSASWMVEENREVDMASDLESASSDEDIDQSLKAKRAKVRAAKKSERNIQKSQKYDERKEAKKIRKEQRQLSKPSKFVLHSIGTGETTRKFVDETVAVRDDADNKDSMALGARKRATARSDRKTKKVNDDDVPFGGREMTFTISKRDKDLRAEAAKTKQAAHAAERKEVSRRPNALVTKGLKKLPGNVNVGKRQNTF | soluble
8 | MEWKGRDVISIRDFSKEDIEVVLSTAERLEKEMKEKGQLEYAKGKILATLFFEPSTRTRLSFESAMHRLGGSVIGFAEASTSSVKKGESLRDTIKTVEQYSDVIVIRHPKEGAARLAAEVADIPVINAGDGSNQHPTQTLLDLYTIKKEFGTIDGLKIGLLGDLKYGRTVHSLAEALAFYDVELYLISPELLRMPKHIVEELRERGMKIVETTKLEEVIGELDVLYVTRIQKERFPDEQEYLKVKGSYQVNLKILENVKDSLRIMHPLPRVDEIHPEVDKTKHAIYFKQVFNGVPVRMALLALVLGVI | soluble
9 | MEWPRFGRVVLKPFSAGLSEAEWKGLYETFRDPEVAEWNGSSPLRSPFWLFKRFVLAEARRKDRVAFVILDEKGEYLGTLELYDLTPEEATLGILIGRKDRWGQGYGTEAVRAALDYAFRVLGLRRVKLRTFAHNLRARRAFQKAGFREVGVVPGPRGREDVHMEVRREDLGPEA | soluble
10 | MEYFNAGGGGSTGNGSTDPYAVIPQQFGNGGQQPQQQVFTDYQQDGSATDYETYQQQQQQYRAAQASQQSSSMYYQNQMTAAQANYFPIHSASEHDFLGPQQPPSATTSVSGAAGAPYQSASGGNKEFMMQHQQRRGNQSGQQQQNQPSQQNNQQQQNQGARQQHPQQMQQQQQSNQSAHFMHQQLQAVQQQQAQQMHHRLQGAPINPQQFMVPPPTMMQPQQMQQAQQQQAQQMHQMQIHHQQHPQMMQQHAQQGYHPHQQNQQHQAGQHQQSHHQSQNHNQHRNHNQSHSGPHHIPQNLMMPRCMLKDWPIRCVVEGKYHAVIIGPNGSTIKDIASSTRCRVDFVNLSKKERTVLGNNDRILTVHGVAEQATKAVARILDVIQSEAVKDDVNVGADTVLRMRAHNQLCGRLIGKAGSSIKEIMQKTGTNITVTKYIEPPGGISGLTANELLGLMERTIMVRGPSIEAVVQAEALISAKLKKCYESDSQLRAQSMQCPMPPMMMPPILPPGASSSAVSAPHFIPTPPGVLQIQPGTTNLRQVRMWVPDSMIGALIGAKGKNIKMIIRDTGASVKIEAPEEKTQREAEEAEKKRKLDETDSGCEGVASGDHPQEFLEDNATINSSDAIEEKPKPVSERMVTINGDDLQLLKAQSYVFSKIAETSSSLPSSGMDGDRSHMLRIRTEVSVPTRIIGRIIGKGGQNVRELQRITGAVVKIPEEERNGGEVYRHDDGLEEDMTMIRTIGNMYSTHNVQFRLAHLVNEYYRSGDHRNKSSDYKGGRPHSAPSSGQEKDGSALEKMDQLGTIAPISNSNRASPKSVSPPKSKSP | not soluble
11 | MEYGNLRRQAASLKKSLFDQGYLDEQFCQVEDLQDEANPNFAEEVVSLFFKDSTRVMLNFEQAIEKHPKDFARWDTHMQQLKGSCSSIGASRVKNECTSFRNFCGEENAEGCTRSFQKVKREHAVLRQKWESYFQLLRQAGPAGTATRPAGK | not soluble
12 | MEYKKILIRLLIAFAVLFSADFTYQSVEQTHQSHAAVNYYSKNQCTWWAFKRRAQVGKPVSNRWGNAKNWYYNARKSKYATGRTPRKFAVMQSTAGYYGHVAVVEQVYKNGSIKVSEYNFYRPLKYNTRVLSKKAARNFNYIYLEHHHHHH | not soluble
13 | MEYREFDFWYYKIGNGDANLTCKMSYNPKSPIFTDFPDTVVHTVLEKLLPAERMVVRNVSKKLRNLFDERYRVIKNVYMQVQDEEAILFFENHEELEKTFSCNGNDGNEKYLEIALEKVAKFTKNHKLEEFEVHFDDEAGEKHRWGLYDDVSDMFKASKAVLNTKKFSIELLRPDDAKAAFSHFKPGNLEDIEIEYFCTGYKYPKYPRCPRYDDDSDDSFEDNMGMYEQLTELAHWQKAKKVKIGVDDSLDFSIEALFHLENFEISLNKFTKNDAIKIRDVLLQTAHFQSGIITFSKDPGGTNMLKVFNPKYSGGENGPIIYKTKDSRFEIGLGYSSIEFKRI | not soluble
14 | MEYTSIADTGIEASRIGLGTWAIGGTMWGGTDEKTSIETIRAALDQGITLIDTAPAYGFGQSEEIVGKAIKEYMKRDQVILATKTALDWKNNQLFRHANRARIVEEVENSLKRLQTDYIDLYQVHWPDPLVPIEETAEVMKELYDAGKIRAIGVSNFSIEQMDTFRAVAPLHTIQPPYNLFEREMEESVLPYAKDNKITTLLYGSLCRGLLTGKMTEEYTFEGDDLRNHDPKFQKPRFKEYLSAVNQLDKLAKTRYGKSVIHLAVRWILDQPGADIALWGARKPGQLEALSEITGWTLNSEDQKDINTILENTISDPVGPEFMAPPTREEIPG | soluble
15 | MFADTCGFMNRSPEHIFGSPEIDYSDVSTGYLEDALIESGERSKRRRLLFEDPSKSFNDDDSQNDWGLHESYSCLNSQFVTPHVNTGERISGVSYCQETISNVYESPDTSVSYDKIYVREKSPTEPSSSNCGNKNKRLITKLVYPFGLVKPGGRENDVTLNDINERILMAPSRPIRHPVGDFASRPCVSGRGPGLSGKAVVALTKIQTQGRGTITIIRTKG | soluble
16 | MFDAKKLEQIAKQIHEAMPQPVKELGADVEQKVRQVIQGQLNKLDVVSREEFDVQTQVLLRTRQKLTELEQKMAELEAKLADK | not soluble
17 | MFDIILEIVILLFNLLIQNLISLIKYALPYSLLPKKDLYRKKVLITGAGNGLGKLLAQKFAARGATLILWDINLQSVDELKNEIRGNQGEAHSYEVNLCDPGKIAQVGQQVINDIGKVDILVNNAGIATAKMILDSSENEINRSFDVNVKAHFYTVQQFLPAMLKDNNGHIVTIASAAGKMGSSGLADYSSTKHAAVGFHDSLVAEIMESEKNGVKTTLVCPYYVHTSMFDATGAATRFPWIFPILDTDYVVQKIFEAIETEQEFLVTPRAFYLVFAGIQILPYKAQAMVAQFFGLVQNLERFHK | not soluble
